Reference: patent publication US6348311B1, “ATM kinase modulation for screening and therapies” (St. Jude Childre's Research Hospital, priority 1999, dated 2002)
Where no end group is shown, it is not given here.

B1: GST-p95 (327-391): larger GST-p95 protein fragment, p95 amino acids 327-391, containing serine 343 (protein)
chain: GHPSTGLKTTTPGPSLSQGVSVDEKLMPSAPVNTTTYVADTESEQADTWDLSERPKEIKVSKMEQ
modifications: also: GST fusion
B2: PhasI/4E-BP1: full-length 4E-BP1 protein, translation regulator in insulin signaling (protein)
chain: SAGSSCSQTPSRAIPTRRVALGDGVQLPPGDYSTTPGGTLFSTTPGGTRIIYDRKFLMECRNSPVAKTPPKDLPTIPGVTSPTSDEPPMQASQSHLHSSPEDKRAGGEESQFEMDI
B3: GST-WRN (1099-1198): GST-linked WRN fragment, amino acids 1099-1198 (protein)
chain: STEKKSNLEKLYSYKPCDKISSGSNISKKSIMVQSPEKAYSSSQPVISAQEQETQIVLYGKLVEARQKHANKMDVPPAILATNKILVDMAKMRPTTVENV
modifications: left off: a dimerising Fc or GST

Experiments:
Type in all cases: biochemical
ATR = biological target: T1, ATR (Homo sapiens, UniProt Q13535); assay: In vitro kinase assay, ATR with GST-peptide / GST-fusion substrates; conditions: for Relative Phosphorylation (%) ATR: GST-peptide substrate, relative to the p53ser15 site; for phosphorylation by ATR in vitro (in words): larger GST-fusion fragments or full-length proteins as substrates
T1 construct: made in house; host or cells: 293T cells, transient transfection with pBJF-FRPwt, anti-FLAG M2 immunoprecipitate
T1 sequence (Q13535 whole entry, the tested form may be a part): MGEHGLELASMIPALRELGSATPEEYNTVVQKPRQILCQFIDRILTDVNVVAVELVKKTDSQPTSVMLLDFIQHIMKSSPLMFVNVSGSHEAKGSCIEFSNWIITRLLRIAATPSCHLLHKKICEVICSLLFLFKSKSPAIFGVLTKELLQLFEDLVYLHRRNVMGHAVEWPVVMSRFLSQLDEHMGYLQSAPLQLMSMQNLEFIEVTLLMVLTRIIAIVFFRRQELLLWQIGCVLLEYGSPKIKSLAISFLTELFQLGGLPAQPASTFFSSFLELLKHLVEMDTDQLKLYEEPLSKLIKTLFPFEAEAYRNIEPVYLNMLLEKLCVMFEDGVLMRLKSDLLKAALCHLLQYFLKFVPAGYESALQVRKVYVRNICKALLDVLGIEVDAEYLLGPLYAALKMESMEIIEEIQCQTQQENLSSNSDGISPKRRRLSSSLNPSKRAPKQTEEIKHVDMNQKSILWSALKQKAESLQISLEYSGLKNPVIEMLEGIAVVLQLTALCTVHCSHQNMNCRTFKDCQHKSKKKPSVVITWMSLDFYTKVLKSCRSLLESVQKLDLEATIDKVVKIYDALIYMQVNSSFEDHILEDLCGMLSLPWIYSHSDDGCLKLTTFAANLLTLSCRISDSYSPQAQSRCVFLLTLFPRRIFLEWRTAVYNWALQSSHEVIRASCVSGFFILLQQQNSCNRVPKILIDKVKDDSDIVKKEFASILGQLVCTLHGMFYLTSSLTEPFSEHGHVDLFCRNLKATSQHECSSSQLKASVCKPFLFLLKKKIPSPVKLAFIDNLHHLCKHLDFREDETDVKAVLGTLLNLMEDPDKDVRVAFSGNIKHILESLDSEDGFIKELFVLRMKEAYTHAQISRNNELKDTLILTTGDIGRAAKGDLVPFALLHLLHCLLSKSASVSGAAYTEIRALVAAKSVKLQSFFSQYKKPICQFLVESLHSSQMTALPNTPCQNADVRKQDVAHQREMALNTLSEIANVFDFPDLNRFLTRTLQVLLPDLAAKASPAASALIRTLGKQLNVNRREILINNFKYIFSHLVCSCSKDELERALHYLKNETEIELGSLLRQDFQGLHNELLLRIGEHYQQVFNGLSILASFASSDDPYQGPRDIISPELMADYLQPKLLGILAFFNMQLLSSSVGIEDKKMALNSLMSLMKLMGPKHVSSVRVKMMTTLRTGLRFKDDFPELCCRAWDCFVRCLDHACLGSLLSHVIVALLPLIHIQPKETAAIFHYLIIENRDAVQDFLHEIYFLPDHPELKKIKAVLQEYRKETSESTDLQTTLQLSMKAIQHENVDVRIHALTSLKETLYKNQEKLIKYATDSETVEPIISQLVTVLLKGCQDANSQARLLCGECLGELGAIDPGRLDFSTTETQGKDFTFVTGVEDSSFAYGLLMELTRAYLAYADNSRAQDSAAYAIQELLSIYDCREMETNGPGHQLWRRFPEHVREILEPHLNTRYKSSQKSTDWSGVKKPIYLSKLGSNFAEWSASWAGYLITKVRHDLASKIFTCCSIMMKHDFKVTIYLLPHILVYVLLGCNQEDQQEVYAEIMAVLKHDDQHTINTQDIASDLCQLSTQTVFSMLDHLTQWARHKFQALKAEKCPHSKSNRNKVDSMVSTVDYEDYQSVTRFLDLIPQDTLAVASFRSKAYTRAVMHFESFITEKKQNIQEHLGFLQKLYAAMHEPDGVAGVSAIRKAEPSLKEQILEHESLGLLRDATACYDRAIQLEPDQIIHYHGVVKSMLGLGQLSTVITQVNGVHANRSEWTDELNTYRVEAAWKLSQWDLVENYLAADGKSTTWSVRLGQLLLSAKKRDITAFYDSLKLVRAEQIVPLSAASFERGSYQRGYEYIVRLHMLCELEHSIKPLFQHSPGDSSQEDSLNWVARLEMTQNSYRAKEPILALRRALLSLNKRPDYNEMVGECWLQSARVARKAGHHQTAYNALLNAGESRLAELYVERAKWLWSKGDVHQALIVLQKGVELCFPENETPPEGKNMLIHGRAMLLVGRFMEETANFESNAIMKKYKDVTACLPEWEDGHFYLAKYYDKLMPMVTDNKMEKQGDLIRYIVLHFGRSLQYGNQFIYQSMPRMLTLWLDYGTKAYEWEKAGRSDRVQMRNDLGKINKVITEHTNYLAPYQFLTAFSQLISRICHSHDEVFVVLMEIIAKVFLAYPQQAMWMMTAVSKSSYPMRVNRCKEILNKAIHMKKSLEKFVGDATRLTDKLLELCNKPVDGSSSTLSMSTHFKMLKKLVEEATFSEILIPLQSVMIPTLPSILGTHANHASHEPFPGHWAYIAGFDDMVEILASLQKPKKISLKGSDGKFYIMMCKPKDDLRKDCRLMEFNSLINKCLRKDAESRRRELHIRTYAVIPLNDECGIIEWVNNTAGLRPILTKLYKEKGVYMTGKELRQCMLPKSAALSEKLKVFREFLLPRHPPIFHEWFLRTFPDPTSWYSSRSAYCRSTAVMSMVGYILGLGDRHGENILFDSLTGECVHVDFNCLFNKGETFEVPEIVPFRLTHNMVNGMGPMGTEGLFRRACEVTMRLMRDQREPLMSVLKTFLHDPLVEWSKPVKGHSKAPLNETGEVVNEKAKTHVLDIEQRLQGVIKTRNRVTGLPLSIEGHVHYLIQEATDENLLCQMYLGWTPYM
Procedure: (§1) FIGS. 1A, 1B, and 1C. Phosphorylation of GST-p53 mutant peptides (amino acids 9-21) by ATM, ATR, and DNA-PK in vitro. In vitro kinase assays with immunoprecipitated, transfected flag-tagged ATM (A) or ATR (B) or purified DNA-PK (C) were performed with GST-p53 peptides containing the amino acid substitutions indicated. The amount of 32P-labeled GST-peptides was quantitated with a PhosphorImager and was normalized for each of the kinases to the level of phosphorylation of wild-type GST-p53.
(§2) FIGS. 2A, 2B, and 2C. Phosphorylation of candidate targets of by ATM, ATR and DNA-PK in vitro. GST-peptides containing the putative target sequences were used as substrates for the kinase assay.
Transfection and Kinase Activity Assays. 293T cells were transiently transfected with 10 μg of either pcDNA-FLAG-ATMwt, pcDNA-FLAG-ATMkd, pBJF-FRPwt or pBJF-FRPkd (Cliby et al., EMBO J., 17:159, 1998) using calcium phosphate and harvested two days later. Cells were lysed through sonication in TGN buffer [50 mM Tris (pH 7.5), 50 mM glycerophosphate, 150 mM NaCl, 10% glycerol, 1% Tween 20, 1 mM NaF, 1 mM NaVO4, 1 mM PMSF, […] Pepstatin A, 5 μg/ml leupeptin, 10 μg/ml Aprotinin and 1 mM DTT] as described (Brunn et al., Science, 277:99-101,1997). After centrifugation at 13,000 ×g, 2 mg of extract were incubated with mouse IgG and protein A/G sepharose beads (Calbiochem). FLAG-tagged proteins were then immunoprecipitated with anti-FLAG M2 monoclonal antibody (Eastman Kodak Company) and protein A/G sepharose beads. Immunoprecipitates were washed twice with TGN buffer, once with 100 mM Tris (pH 7.5) plus 0.5 M LiCl, and twice with kinase buffer [10 mM Hepes (pH 7.5), 50 mM glycerophosphate, 50 mM NaCl, 10 mM MgCl2, 10 mM MnCl2, 5 μM ATP, and 1 mM DTT]. Kinase reactions were initiated by resuspending washed beads in 30 μl of kinase buffer containing 10 μCi [γ-^32P]ATP and 1 μg GSTp531-101 and incubated for 30 minutes at 30° C. Proteins were electrophoretically separated by SDS-polyacrylamide gel electrophoresis, transferred to nitrocellulose, and analyzed on a PhosphorImager. FLAG-tagged proteins and GSTp531-101 were subjected to immunoblotting with either anti-FLAG M2 antibody or monoclonal antibodies directed towards the NH2-terminus of p53 (Ab-2 and Ab-6, Calbiochem) as described (Siliciano et al., Genes Dev., 11:3471, 1997).
Phosphorylation of Ser^15 of p53 by ATM and ATR/FRP1 in vitro. […] Proteins from each reaction were separated by SDS polyacrylamide gel electrophoresis (7% gel), transferred to nitrocellulose, and analyzed either on a PhosphorImager or by immunoblotting. Amounts of FLAG-tagged ATM or ATR in each kinase reaction were measured by immunoblotting with anti-FLAG M2 (top panel) and amount of [γ^32P]phosphate incorporated into ATM or ATR during the reaction (lower panel). […] An upper immunoreactive band represents phosphorylated GSTp53 fusion protein. The same exposures were used for ATM, ATR/FRP1 and corresponding substrate proteins.
(§3) Plasmids and GST-fusion protein production. For GST fusion peptide expression vectors, complementary oligonucleotides encoding desired peptides (14 amino acids) were cloned into the BamHI/SmaI site of pGEX-2T (Pharmacia). The constructs were confirmed by restriction enzyme digests and DNA sequencing. To construct the larger GST-p95 (327-391) protein fragment, p95 DNA encoding amino acids 327-391 was amplified by PCR with Pfu polymerase using the following primers: 5′ sense,
In vitro kinase assays and immunoprecipitation. […] Cleared supernatants were immunoprecipitated with anti-Flag M2 antibody and protein A/G agarose, the beads were washed with TGN buffer followed by TGN buffer plus 0.5 M LiCl, and two washes with kinase buffer [20 mM HEPES (pH 7.5), 50 mM NaCl, 10 mM MgCl2, 1 mM dithiothreitol (DTT) and 10 mM MnCl2]. […] ATP and […] of GST-fusion substrate (GST-p53:1-101), in varying concentration of Mn^2+. […]

DNA-PK = DNA-PK (Homo sapiens, UniProt P78527); assay: In vitro kinase assay, purified DNA-PK with GST-peptide / GST-fusion substrates; conditions: for Relative Phosphorylation (%) DNA-PK: GST-peptide substrate, relative to the p53ser15 site
Procedure: as §1, §2, §3
In vitro kinase assays and immunoprecipitation. […] Cleared supernatants were immunoprecipitated with anti-Flag M2 antibody and protein A/G agarose, the beads were washed with TGN buffer followed by TGN buffer plus 0.5 M LiCl, and two washes with kinase buffer [20 mM HEPES (pH 7.5), 50 mM NaCl, 10 mM MgCl2, 1 mM dithiothreitol (DTT) and 10 mM MnCl2]. […] ATP and […] of GST-fusion substrate (GST-p53:1-101), in varying concentration of Mn^2+. The kinase reaction was conducted at 30° C. for 20 min and stopped by the addition of SDS-PAGE loading buffer. Proteins were separated on SDS-polyacrylamide gel electrophoresis (SDS-PAGE) and transferred to nitrocellulose. Radiolabeled proteins were visualized and quantitated on a Phosphorimager (Molecular Dynamics). Use of equivalent amounts of flag-tagged ATM or ATR in the different lanes was confirmed by immunoblotting with anti-flag antibody. In some reactions, either supercoiled DNA (pBluescript II KS, Stratagene) or linearized DNA (pBluescript II KS cut with EcoR1) was added ([…]). For endogenous ATM kinase reactions, endogenous ATM was immunoprecipitated from GM0536 lymphhoblasts with ATM monoclonal antibody (D16.11) in M buffer (PBS, 10% glycerol, 0.2% Tween 20, 0.3% NP-40, 1 mM NaF, 1 mM Na3VO4, 1 mM PMSF, 1x protease inhibitor mixture]. After washing with M buffer and kinase buffer, in vitro kinase reactions were carried out according to procedures described above. The DNA-PK in vitro kinase reaction was performed as previously described (Gottlieb and Jackson, 1993), using 20 ng each of DNA-PKcs or DNA-PK (20 ng DNA-PKcs premixed with 20 ng Ku 70/80).

ATM kinase = biological target: T2, ATM kinase (Homo sapiens, UniProt Q13315); assay: In vitro kinase assay, ATM with GST-peptide / GST-fusion substrates; conditions: for phosphorylation of GST-peptide substrate by ATM (in words): GST-conjugated 14 amino acid peptides; for Relative Phosphorylation (%) ATM: GST-peptide substrate, relative to the p53ser15 site; for phosphorylation by ATM in vitro (in words): larger GST-fusion fragments or full-length proteins as substrates;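 as to all read-outs here: immunoprecipitated ATM incubated with [γ-32P]ATP at 30 °C for 20 min, substrates resolved by SDS-PAGE and radiolabel incorporation quantified by PhosphorImager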
T2 construct: The full-length cDNA encoding NH2-terminal, FLAG-tagged wild-type ATM; made in house; host or cells: 293T cells, transient transfection with pcDNA-FLAG-ATMwt, anti-FLAG M2 immunoprecipitate on beads

| Molecule | Relative Phosphorylation (%) ATR (ATR) [%] | Relative Phosphorylation (%) DNA-PK (DNA-PK) [%] | Relative Phosphorylation (%) ATM (ATM kinase) [%] | phosphorylation by ATM in vitro (in words) (ATM kinase) | also measured |
| --- | --- | --- | --- | --- | --- |
| 4EBP1 (Phas I): GST-peptide EPPMEASQSHLRNS (SEQ ID NO:9), S94 (also: GST fusion) | 66 | 10 | 78 | – | phosphorylation of GST-peptide substrate by ATM (in words) (ATM kinase): excellent in vitro substrate |
| [Mn+2] [Mn^2+] | – | – | – | – | effect of addition on ATR kinase activity (ATR; transfected flag-tagged ATR, GST-p53 (1-101) substrate): dependent; effect of addition on DNA-PK activity (DNA-PK; purified DNA-PK, GST-p53 (1-101) substrate): not altered; effect of addition on activity of endogenous ATM (ATM kinase; endogenous ATM immunoprecipitated under mild conditions): dependent; effect of addition on ATM kinase activity (ATM kinase; transfected flag-tagged ATM, GST-p53 (1-101) substrate): dependent |
| ATM S440: GST-peptide PLLMILSQLLPQQR (SEQ ID NO:24), S440 of ATM (also: GST fusion) | 55 | 7 | 33 | – | – |
| ATM S2761: GST-peptide YKVVPLSQRSGVLE (SEQ ID NO:25), S2761 of ATM (also: GST fusion) | 22 | <1 | 3 | – | – |
| BRCA1 (SQ1): GST-peptide SASLFSSQCSELED (SEQ ID NO:32), S1298 (also: GST fusion) | 38 | 6 | 2 | – | – |
| BRCA1 (SQ2): GST-peptide DCSGLSSQSDILTT (SEQ ID NO:33), S1387 (also: GST fusion) | 35 | 36 | 42 | – | – |
| BRCA1 (SQ3): GST-peptide SSEYPISQNPEGLS (SEQ ID NO:34), S1466 (also: GST fusion) | 33 | 12 | 8 | – | – |
| BRCA2: GST-peptide KVSPYLSQFQQDKQ (SEQ ID NO:29), S2156 (also: GST fusion) | 132 | <1 | <1 | – | phosphorylation of GST-peptide substrate by ATR (in words) (ATR; GST-conjugated 14 amino acid peptides): phosphorylated by ATR; phosphorylation of GST-peptide substrate by ATM (in words) (ATM kinase): not by ATM |
| CHK1 (SQ1): GST-peptide NVKYSSSQPEPRTG (SEQ ID NO:16), S317 (also: GST fusion) | 58 | 2 | 14 | – | – |
| CHK1 (SQ2): GST-peptide VQGISFSQPTCPDH (SEQ ID NO:17), S345 (also: GST fusion) | 73 | 20 | 11 | – | – |
| GST: glutathione S-transferase alone, control substrate [reference compound] | – | – | – | did not phosphorylate | – |
| MRE11 (SQ4): GST-peptide SASRGGSQRGRAFK (SEQ ID NO:14), S590 (also: GST fusion) | – | – | <1 | – | – |
| MRE11 (SQ5): GST-peptide SSSKIMSQSQVSKG (SEQ ID NO:15), S648 (also: GST fusion) | – | – | <1 | – | – |
| full-length WRN protein: purified recombinant full-length WRN protein | – | – | – | not phosphorylated | phosphorylation by ATR in vitro (in words) (ATR): not phosphorylated |
| wt p53: recombinant glutathione S-transferase-conjugated p53 protein containing the first 101 amino acids of p53 | – | – | – | phosphorylated | ATR/FRP-1 activity towards substrate, less than ATM (ATR; identical experimental conditions): at least 20 fold |
| B1 | – | – | – | excellent in vitro substrate | – |
| B2 | – | – | – | good substrate | phosphorylation by ATM in vitro (in words) (ATM kinase; listed as full-length 4E-BP 1): can phosphorylate |
| B3 | – | – | – | not phosphorylated | phosphorylation by ATR in vitro (in words) (ATR): not phosphorylated |
